Laboratory results taken from PMC13397619.

B1: NLV2 TCR alpha chain (CDR3α only) (parent)
chain: AGPMKTSYDKVI
partner: MLVPMVATV

Variants of: B1
Experiment: T-Switch: Jurkat TCRβ−/− cells expressing a CDR3 saturation-mutagenesis library, stained with two peptide-HLA-A*02:01 tetramers (original and novel peptide) plus anti-CD3, FACS-sorted into four gates, gDNA sequenced
Details: with HLA-A*02:01 with peptide … (NLV 3-1, the novel peptide), tetramers 1 µg/mL, 30 min on ice, SP, DP and SW gates expanded about 10 days between rounds ('two to three rounds of selection' in the Methods), gate SW: higher = more of the variant in the gate that binds the novel peptide and not the original one = switched binding. Fold enrichment of the CDR3 variant in one FACS gate of a two-tetramer stain, unresolved parent, parent is a CDR3 fragment, scale: fold enrichment, numbering: sequential-on-construct, sequence starts at 1

Variant | enrichment
[…] (CDR3 as printed); T6W derived by comparing it with the table's wild-type CDR3 AGPMKTSYDKVI | 0
[…] (CDR3 as printed); S7D derived by comparing it with the table's wild-type CDR3 AGPMKTSYDKVI | 0
[…] (CDR3 as printed); V11G derived by comparing it with the table's wild-type CDR3 AGPMKTSYDKVI | 0
[…] (CDR3 as printed); M4P derived by comparing it with the table's wild-type CDR3 AGPMKTSYDKVI | 0
[…] (CDR3 as printed); V11Y derived by comparing it with the table's wild-type CDR3 AGPMKTSYDKVI | 0
[…] (CDR3 as printed); S7T derived by comparing it with the table's wild-type CDR3 AGPMKTSYDKVI | 0
[…] (CDR3 as printed); V11E derived by comparing it with the table's wild-type CDR3 AGPMKTSYDKVI | 0
[…] (CDR3 as printed); M4K derived by comparing it with the table's wild-type CDR3 AGPMKTSYDKVI | 0
[…] (CDR3 as printed); P3D derived by comparing it with the table's wild-type CDR3 AGPMKTSYDKVI | 0
[…] (CDR3 as printed); S7Q derived by comparing it with the table's wild-type CDR3 AGPMKTSYDKVI | 0
[…] (CDR3 as printed); V11F derived by comparing it with the table's wild-type CDR3 AGPMKTSYDKVI | 0
[…] (CDR3 as printed); V11C derived by comparing it with the table's wild-type CDR3 AGPMKTSYDKVI | 0
[…] (CDR3 as printed); P3S derived by comparing it with the table's wild-type CDR3 AGPMKTSYDKVI | 0
[…] (CDR3 as printed); T6V derived by comparing it with the table's wild-type CDR3 AGPMKTSYDKVI | 0
[…] (CDR3 as printed); Y8A derived by comparing it with the table's wild-type CDR3 AGPMKTSYDKVI | 77.9
[…] (CDR3 as printed); Y8L derived by comparing it with the table's wild-type CDR3 AGPMKTSYDKVI | 0
[…] (CDR3 as printed); Y8C derived by comparing it with the table's wild-type CDR3 AGPMKTSYDKVI | 0
[…] (CDR3 as printed); V11W derived by comparing it with the table's wild-type CDR3 AGPMKTSYDKVI | 0
[…] (CDR3 as printed); T6S derived by comparing it with the table's wild-type CDR3 AGPMKTSYDKVI | 0
[…] (CDR3 as printed); S7K derived by comparing it with the table's wild-type CDR3 AGPMKTSYDKVI | 0
[…] (CDR3 as printed); S7W derived by comparing it with the table's wild-type CDR3 AGPMKTSYDKVI | 0
[…] (CDR3 as printed); V11I derived by comparing it with the table's wild-type CDR3 AGPMKTSYDKVI | 0
[…] (CDR3 as printed); T6Y derived by comparing it with the table's wild-type CDR3 AGPMKTSYDKVI | 0
[…] (CDR3 as printed); T6I derived by comparing it with the table's wild-type CDR3 AGPMKTSYDKVI | 0
[…] (CDR3 as printed); V11R derived by comparing it with the table's wild-type CDR3 AGPMKTSYDKVI | 0
[…] (CDR3 as printed); S7H derived by comparing it with the table's wild-type CDR3 AGPMKTSYDKVI | 0
[…] (CDR3 as printed); P3E derived by comparing it with the table's wild-type CDR3 AGPMKTSYDKVI | 0

Variant | enrichment
[…] (CDR3 as printed); T6R derived by comparing it with the table's wild-type CDR3 AGPMKTSYDKVI | 0
[…] (CDR3 as printed); P3Y derived by comparing it with the table's wild-type CDR3 AGPMKTSYDKVI | 0
[…] (CDR3 as printed); T6N derived by comparing it with the table's wild-type CDR3 AGPMKTSYDKVI | 0
[…] (CDR3 as printed); M4Q derived by comparing it with the table's wild-type CDR3 AGPMKTSYDKVI | 0
[…] (CDR3 as printed); M4I derived by comparing it with the table's wild-type CDR3 AGPMKTSYDKVI | 0
[…] (CDR3 as printed); M4G derived by comparing it with the table's wild-type CDR3 AGPMKTSYDKVI | 0
[…] (CDR3 as printed); S7Y derived by comparing it with the table's wild-type CDR3 AGPMKTSYDKVI | 0
[…] (CDR3 as printed); P3M derived by comparing it with the table's wild-type CDR3 AGPMKTSYDKVI | 0
[…] (CDR3 as printed); P3C derived by comparing it with the table's wild-type CDR3 AGPMKTSYDKVI | 0
[…] (CDR3 as printed); S7M derived by comparing it with the table's wild-type CDR3 AGPMKTSYDKVI | 0
[…] (CDR3 as printed); P3G derived by comparing it with the table's wild-type CDR3 AGPMKTSYDKVI | 0
[…] (CDR3 as printed); T6G derived by comparing it with the table's wild-type CDR3 AGPMKTSYDKVI | 0
[…] (CDR3 as printed); P3F derived by comparing it with the table's wild-type CDR3 AGPMKTSYDKVI | 0
[…] (CDR3 as printed); P3N derived by comparing it with the table's wild-type CDR3 AGPMKTSYDKVI | 0
[…] (CDR3 as printed); S7L derived by comparing it with the table's wild-type CDR3 AGPMKTSYDKVI | 0
[…] (CDR3 as printed); M4Y derived by comparing it with the table's wild-type CDR3 AGPMKTSYDKVI | 0
[…] (CDR3 as printed); P3W derived by comparing it with the table's wild-type CDR3 AGPMKTSYDKVI | 0
[…] (CDR3 as printed); V11H derived by comparing it with the table's wild-type CDR3 AGPMKTSYDKVI | 0
[…] (CDR3 as printed); Y8N derived by comparing it with the table's wild-type CDR3 AGPMKTSYDKVI | 0
[…] (CDR3 as printed); M4L derived by comparing it with the table's wild-type CDR3 AGPMKTSYDKVI | 0
[…] (CDR3 as printed); V11T derived by comparing it with the table's wild-type CDR3 AGPMKTSYDKVI | 0
[…] (CDR3 as printed); M4V derived by comparing it with the table's wild-type CDR3 AGPMKTSYDKVI | 0
[…] (CDR3 as printed); P3I derived by comparing it with the table's wild-type CDR3 AGPMKTSYDKVI | 0
[…] (CDR3 as printed); S7P derived by comparing it with the table's wild-type CDR3 AGPMKTSYDKVI | 0
[…] (CDR3 as printed); V11M derived by comparing it with the table's wild-type CDR3 AGPMKTSYDKVI | 0
[…] (CDR3 as printed); S7E derived by comparing it with the table's wild-type CDR3 AGPMKTSYDKVI | 0
[…] (CDR3 as printed); Y8I derived by comparing it with the table's wild-type CDR3 AGPMKTSYDKVI | 0
